From paper PMC2795092

Molecular target: purified full-length human hexahistidine-tagged 14-3-3η (human) (UniProt Q04917)
Experiment: pull-down

Sequence of UniProt Q04917 (Q04917 whole entry): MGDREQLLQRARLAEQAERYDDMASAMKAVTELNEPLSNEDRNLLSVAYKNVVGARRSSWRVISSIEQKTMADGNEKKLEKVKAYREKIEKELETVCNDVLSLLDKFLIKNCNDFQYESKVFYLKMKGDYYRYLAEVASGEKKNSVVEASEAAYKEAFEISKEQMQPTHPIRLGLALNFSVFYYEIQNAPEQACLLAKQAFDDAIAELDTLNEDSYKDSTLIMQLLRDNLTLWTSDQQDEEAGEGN

densitometry of bound [35S] AR: 15000
Substance: in vitro translated 35S-labeled androgen receptor (AR) (from UniProt P10275 1-920)
